koff data for one molecule are collected here from publication PMC9399999 (2022).

The target in this experiment is prototypic SARS-CoV-2 RBD (residues 319-541) (SARS-CoV-2 (prototype), UniProt P0DTC2 319-541). Description: SPR.

B1: S304 antibody (IgG1) (antibody, V domains shown)
VH: EVQLVESGGGLVQPGGSLRLSCAASGFTFSSYDMHWVRQTTGKGLEWVSTIGTAGDTYYPDSVKGRFTISREDAKNSLYLQMNSLRAGDTAVYYCARGDSSGYYYYFDYWGQGTLLTVSS
VL: DIQMTQSPSSLSAAVGDRVTITCRASQSIGSYLNWYQQKPGKAPKLLIYAASSLQSGVPSRFSGSGSGTDFTLTISSLQPEDFAIYYCQQSYVSPTYTFGPGTKVDIK
B1 came in with a koff of 0.00664 s⁻¹.

By koff is commonly meant the first-order rate constant of dissociation.
